Source: patent US7387779B2, “Anti-angiogenic proteins and fragments and methods of use thereof” (Beth Israel Deaconess Medical Center, priority 1998, dated 2008)

Key:
[1] = test system: new blood vessels in Matrigel plugs; assay: In vivo Matrigel plug assay; set-up: species or system C57/BL6 mice; conditions: for inhibition of neovascularization / average number of vessels per high power field: Tumstatin-N53 5 μg/ml, T1 and T3 peptide 10 μg/ml; for average number of vessels per high power field: control 8.81±0.35; for reduction in the number of blood vessels / number of blood vessels per plug: 14 days; for number of blood vessels per plug: 2 or 20 μg/ml insoluble protein, 50 ng/ml VEGF, vs PBS; for reduction of new blood vessels: 6 days, 5 μg/ml, relative to PBS control
Procedure: The matrigel assay was also conducted in vivo in C57/BL6 mice. Matrigel was thawed overnight at 4° C. It was then mixed with 20 U/ml of heparin (Pierce Chemical Co., Rockford, Ill., USA), 150 ng/ml of bFGF (R&D Systems, Minneapolis, Minn., USA), and either 1 μg/ml of Arresten or 10 μg/ml of endostatin. The matrigel mixture was injected subcutaneously using a 21 g needle. Control groups received the same mixture, but with no angiogenic inhibitor. After 14 days, mice were sacrificed and the matrigel plugs removed. The matrigel plugs were fixed in 4% paraformaldehyde in PBS for 4 hours at room temperature, then switched to PBS for 24 hours. The plugs were embedded in paraffin, sectioned, and H&E stained. Sections were examined by light microscopy and the number of blood vessels from 10 high-power fields were counted and averaged.
To evaluate the in vivo effect of Tumstatin on the formation of new capillaries, a Matrigel plug assay was performed (Passaniti, A. et al., 1992, Lab. Invest. 67:519-29). Five- to six-week-old male C57/BL6 mice (Jackson Laboratories, Bar Harbor, Me., USA) were obtained. Matrigel (Collaborative Biomedical Prods.) was thawed overnight at 4° C. Before injection into C57/BL6 mice, it was mixed with 20 U/ml of heparin (Pierce Chemical Co., Rockford, Ill., USA), 150 ng/ml of bFGF (R&D Sys., Minneapolis, Minn., USA), and […] of Tumstatin. Control groups received no angiogenic inhibitor. The Matrigel mixture was injected sub-cutaneously using a 21 gauge needle. After 14 days, mice were sacrificed and the Matrigel plugs were removed. Matrigel plugs were fixed in 4% para-formaldehyde (in PBS) for 4 hours at room temperature, then switched to PBS for 24 hours. The plugs were embedded in paraffin, sectioned, and H & E stained. Sections were examined by light microscopy and the number of blood vessels from 10 high power fields were counted and averaged. All sections were coded and observed by a pathologist who was unaware of the study protocols.
Anti-angiogenic activity was measured by the in vivo Matrigel plug assay, in which 0.5 ml of Matrigel containing either 2 μg/ml or 20 μg/ml insoluble protein, 50 ng/ml VEGF, and 20 U/ml heparin was injected simultaneously into both flanks of C57/1BL6 mice. The plugs remained in the mice for 14 days, when the mice were sacrificed and the plugs resected and fixed. The plugs were embedded, sectioned and H&E stained. Samples were blinded and the blood vessels quantitated. No difference in the number of blood vessels was found between the two concentrations of protein, so all six counts were averaged and plotted.
To evaluate the in vivo effect of Tumstatin-44-131 of the formation of new capillaries, a Matrigel plug assay was performed. After 6 days of treatment, the number of new blood formed was reduced 91% upon treatment with 5 μg/ml E. Coli-expressed Tumstatin-44-131, relative to the PBS-treated control. Tum-1, which lacks the N-terminal 53 amino acids of full-length Tumstatin, was also tested, and reduced neovascularization by 95%. The average (over 3-4 Matrigel plugs) number of vessels was 0.47.+−.0.16 for Tum-1-treated plugs, 0.80.+−.0.16 for Tumstatin-44-131-treated plugs, and 8.81.+−.0.35 for PBS-treated controls.
To evaluate the in vivo effect of T3 on the formation of new capillaries, a matrigel plug assay was performed with Tumstatin-N53 (5 μg/ml), T1 and T3 peptide (10 μg/ml). The number of blood vessels from 4-7 high power fields were counted and averaged. The average number of vessels per high power field after treatment with Tumstatin-N53 was 0.47±0.16, 7.41±0.54 for T1 peptide, and 0.33±0.16 for T3 peptide. Control treatment produced 8.81±0.35 vessels per field, on average.

human αvβ3 protein = biological target: T1, human αvβ3 protein (Homo sapiens, UniProt P05106+P06756); assay: Competition proliferation assay with soluble αvβ3 protein, C-PAE cells; format: cell-based, bovine
T1 construct: purchased CHEMICON Int'l, Temecula, Calif., USA
T1 sequence (P06756 31-889 limits assumed): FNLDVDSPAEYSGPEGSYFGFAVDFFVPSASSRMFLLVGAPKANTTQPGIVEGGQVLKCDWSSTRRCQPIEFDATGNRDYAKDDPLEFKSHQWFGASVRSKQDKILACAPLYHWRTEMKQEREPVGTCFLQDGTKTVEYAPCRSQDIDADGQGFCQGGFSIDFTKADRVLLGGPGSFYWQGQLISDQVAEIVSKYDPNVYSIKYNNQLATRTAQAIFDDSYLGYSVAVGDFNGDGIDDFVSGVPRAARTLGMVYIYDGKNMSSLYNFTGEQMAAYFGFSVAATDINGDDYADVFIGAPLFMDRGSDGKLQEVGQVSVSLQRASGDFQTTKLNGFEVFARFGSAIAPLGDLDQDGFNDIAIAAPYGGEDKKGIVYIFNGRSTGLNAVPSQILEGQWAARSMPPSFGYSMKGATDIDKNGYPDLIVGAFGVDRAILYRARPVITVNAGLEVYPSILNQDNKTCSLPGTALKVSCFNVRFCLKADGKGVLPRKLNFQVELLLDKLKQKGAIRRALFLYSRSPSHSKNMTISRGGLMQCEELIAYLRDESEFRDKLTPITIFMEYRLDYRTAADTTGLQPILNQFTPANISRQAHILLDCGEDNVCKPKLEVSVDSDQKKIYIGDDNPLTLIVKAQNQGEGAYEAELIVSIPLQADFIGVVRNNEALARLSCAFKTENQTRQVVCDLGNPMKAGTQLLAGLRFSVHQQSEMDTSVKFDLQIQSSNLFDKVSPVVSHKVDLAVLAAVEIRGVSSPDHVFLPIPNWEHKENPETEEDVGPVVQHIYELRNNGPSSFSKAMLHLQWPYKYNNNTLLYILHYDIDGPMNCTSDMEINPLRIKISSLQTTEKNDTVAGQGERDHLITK
T1 sequence (P06756 891-1048 partner limits assumed): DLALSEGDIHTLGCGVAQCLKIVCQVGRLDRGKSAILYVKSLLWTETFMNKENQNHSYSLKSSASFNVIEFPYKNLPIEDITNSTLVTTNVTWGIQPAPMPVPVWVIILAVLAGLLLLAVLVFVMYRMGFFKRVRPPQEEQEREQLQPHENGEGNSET
T1 sequence (P05106 27-788): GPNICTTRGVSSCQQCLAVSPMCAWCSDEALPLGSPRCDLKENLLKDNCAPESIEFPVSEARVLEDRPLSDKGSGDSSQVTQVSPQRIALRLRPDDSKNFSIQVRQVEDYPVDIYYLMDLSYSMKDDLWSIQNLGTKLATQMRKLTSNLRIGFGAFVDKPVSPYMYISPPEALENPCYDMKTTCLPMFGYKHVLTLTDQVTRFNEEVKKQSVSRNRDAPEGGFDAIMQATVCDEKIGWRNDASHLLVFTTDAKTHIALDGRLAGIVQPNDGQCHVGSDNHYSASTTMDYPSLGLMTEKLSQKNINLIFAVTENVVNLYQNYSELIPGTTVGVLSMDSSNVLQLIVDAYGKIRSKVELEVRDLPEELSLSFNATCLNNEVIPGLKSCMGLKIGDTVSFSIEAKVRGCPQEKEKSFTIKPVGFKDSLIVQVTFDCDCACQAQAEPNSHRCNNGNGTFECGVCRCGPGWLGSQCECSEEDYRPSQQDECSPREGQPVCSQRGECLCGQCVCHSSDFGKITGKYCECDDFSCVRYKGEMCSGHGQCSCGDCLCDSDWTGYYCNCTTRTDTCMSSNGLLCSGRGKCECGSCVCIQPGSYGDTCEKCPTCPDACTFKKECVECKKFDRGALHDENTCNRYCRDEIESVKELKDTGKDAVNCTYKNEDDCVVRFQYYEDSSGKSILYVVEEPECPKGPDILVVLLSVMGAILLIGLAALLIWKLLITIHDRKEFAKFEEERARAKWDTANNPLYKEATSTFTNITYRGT
Procedure: C-PAE cells were plated into 96-well plates as described above for the endothelial cell proliferation assay. Tumstatin at a final concentration of 0.1 μg/ml was incubated with varying concentrations (0, 0.008, 0.08, 0.8, 1.6 and 2.4 μg/ml) of human αvβ3 protein (CHEMICON Int'l, Temecula, Calif., USA) for 30 minutes at room temperature. This mixture was then added into the wells, and incubated for 48 hours. The proliferation assay was then performed using the methylene blue staining method, as described above for the endothelial cell proliferation assay.
The integrin αvβ3 was then investigated for its ability to reverse the anti-proliferative effects of Tumstatin and Tum-2. Tumstatin and Tum-2 were incubated with αvβ3 protein for 30 minutes, and added to C-PAE cells which were plated in 96-well plates and incubated overnight with growth media. After incubation for 48 hours, the cell number was determined by methylene blue staining.
Integrin αvβ3 was investigate for its ability to reverse the anti-proliferative affects of peptide T3. T3 peptide was incubated with 0, 0.001, 0.01, 0.1, 0.5, or 1.0 μg/ml αvβ3 integrin protein (CHEMICON Int'l, Temecula, Calif., USA) for 30 minutes at room temperature, and was then added, at 20 μg/ml final concentration, to C-PAE cells that had been grown in 96-well plates in growth media. After 48 hours of additional incubation, cell number was determined by the methylene blue assay. The results are shown in FIG. 43C, which is a histogram showing the growth of C-PAE cells (y-axis) when treated with T3 peptide that had been pre-incubated with varying concentrations (x-axis) of αvβ3 integrin.
Soluble αvβ3 integrin protein reversed the anti-proliferative effects of Tumstatin-44-131. This was shown by a competition proliferation assay as described above in Example 26. […] E. Coli-expressed Tumstatin-44-131 was then incubated with αvβ3 integrin protein for 30 minutes, and then added to C-PAE cells with 20% FCS. After 48 hours, cell proliferation was determined by methylene blue staining. The anti-proliferative affect of Tumstatin-44-131 was reversed dose-dependently with increasing concentrations of αvβ3 soluble protein.

PC-3 tumors = conditions: for tumor volume on day 10: 20 mg/kg i.p. daily for 10 days, control 202.8±50.0
Procedure: In a second PC-3 experiment, PC-3 cells were harvested from culture and 3 million cells were injected into 6- to 7-week-old athymic nude mice, and tumors were allowed to grow subcutaneously for approximately 2 weeks after which the animals were divided into groups of four mice. Experimental groups (4 mice) were injected daily I.P. with Canstatin at a dosage of 3 mg/kg in a total volume of 0.2 ml of PBS or endostatin at a dosage of 8 mg/kg in the same volume of PBS. The control group (4 mice) received equal volumes of PBS each day. Tumor length and width were measured using a Vernier caliper and the tumor volume was calculated using the standard formula: length×width^2×0.52. Tumor volumes ranged from 26 mm^3 to 73 mm^3, and the calculated tumor volume on a given day was divided by the volume on treatment day 0 to produce a fractional tumor volume (V/V0), as described above.

## LQRFTTMPFLFCNVNDVCNF [T3]
[1]
  inhibition of neovascularization: 96%
  average number of vessels per high power field: 0.33±0.16
Human αvβ3 protein; peptide 20 μg/ml
  anti-proliferative effect after pre-incubation with αvβ3 integrin protein: significantly decreased

## GLKGKRGDSGSPATWTTRGF [T1]
[1]
  inhibition of neovascularization: no significant reduction
  average number of vessels per high power field: 7.41±0.54

B1: Tumstatin: NC1 domain of the α3 chain of type IV collagen, residues 1-244 (SEQ ID NO:10) (protein, listed as Homo sapiens)
chain: GLKGKRGDSGSPATWTTRGFVFTRHSQTTAIPSCPEGTVPLYSGFSFLFVQGNQRAHGQDLGTLGSCLQRFTTMPFLFCNVNDVCNFASRNDYSYWLSTPALMPMNMAPITGRALEPYISRCTVCEGPAIAIAVHSQTTDIPPCPHGWISLWKGFSFIMFTSAGSEGTGQALASPGSCLEEFRASPFLECHGRGTCNYYSNSYSFWLASLNPERMFRKPIPSTVKAGELEKIISRCQVCMKKRH
PC-3 tumors
  tumor volume on day 10: 82.9±25.2 mm^3
[1]; 1 mg/ml Tumstatin, control 7.50±2.17
  number of vessels per high power field: 2.25±1.32
[1]; bFGF and heparin, 1 mg/ml E. Coli-produced Tumstatin
  reduction in the number of blood vessels: 67%
Human αvβ3 protein; αvβ3 at 2.4 μg/ml (3-fold molar excess), Tumstatin 0.1 μg/ml
  reversal of anti-proliferative effect by soluble αvβ3 protein: 43.1%

B2: Canstatin: NC1 domain of the α2 chain of Type IV collagen (SEQ ID NO:6) (protein, listed as Homo sapiens)
chain: VSIGYLLVKHSQTDQEPMCPVGMNKLWSGYSLLYFEGQEKAHNQDLGLAGSCLARFSTMPFLYCNPGDVCYYASRNDKSYWLSTTAPLPMMPVAEDEIKPYISRCSVCEAPAIAIAVHSQDVSIPHCPAGWRSLWIGYSFLMHTAAGDEGGGQSLVSPGSCLEDFRATPFIECNGGRGTCHYYANKYSFWLTTIPEQSFQGSPSADTLKAGLIRTHISRCQVCMKNL
PC-3 tumors; 3 mg/kg Canstatin
  tumor suppression compared with endostatin: same suppressive effect as 8 mg/kg of endostatin
PC-3 tumors; athymic (nu/nu) mice
  treated tumors, fold less than placebo: 2.4 fold
PC-3 tumors; mouse, in vivo
  condition of mice during treatment: appeared healthy with no signs of wasting
[1]
  number of blood vessels per plug: significantly fewer blood vessels

B3: Tumstatin-44-131: residues 44 to 131 of full-length Tumstatin (SEQ ID NO:33) (protein)
chain: FSFLFVQGNQRAHGQDLGTLGSCLQRFTTMPFLFCNVNDVCNFASRNDYSYWLSTPALMPMNMAPITGRALEPYISRCTVCEGPAIAI
modifications: Tumstatin-45-132 (amino acids 45-132 of SEQ ID NO10)
[1]
  reduction of new blood vessels: 91%
Human αvβ3 protein; αvβ3 protein at 1 μg/ml, 20% FCS
  reversal of anti-proliferative effect by soluble αvβ3 protein: 65.9%

B4: Tum-2: residues 1 to 132 of Tumstatin (SEQ ID NO:23) (protein)
chain: GLKGKRGDSGSPATWTTRGFVFTRHSQTTAIPSCPEGTVPLYSGFSFLFVQGNQRAHGQDLGTLGSCLQRFTTMPFLFCNVNDVCNFASRNDYSYWLSTPALMPMNMAPITGRALEPYISRCTVCEGPAIAI
modifications: Tum-2 (amino acids 1-132 of SEQ ID NO10)
Human αvβ3 protein; 2 g/ml αvβ3 protein (so in the source)
  recovery of anti-proliferative effect by soluble αvβ3 protein: 74.1%

B5: endostatin: tumor associated angiogenesis inhibitor used as comparator (protein, UniProt P39060 1572-1754, looked up)
Endostatin: HSHRDFQPVLHLVALNSPLSGGMRGIRGADFQCFQQARAVGLAGTFRAFLSSRLQDLYSIVRRADRAAVPIVNLKDELLFPSWEALFSGSEGPLKPGARIFSFDGKDVLRHPTWPQKSVWHGSDPNGRRLTESYCETWRTEAPSATGQASSLLGGRLLGQSAASCHHAYIVLCIENSFMTASK
modifications: Endostatin
PC-3 tumors; 5 mg/kg endostatin
  tumor suppression: not able to suppress tumor growth
PC-3 tumors
  tumor volume on day 10: 68.9±16.7 mm^3
[1]; bFGF, 1 μg/ml Arresten, 10 μg/ml endostatin
  reduction in the number of blood vessels: 50%

B6: Tum-1: residues 54 to 244 of Tumstatin, lacking the N-terminal 53 amino acids (SEQ ID NO:22) (protein)
chain: QRAHGQDLGTLGSCLQRFTTMPFLFCNVNDVCNFASRNDYSYWLSTPALMPMNMAPITGRALEPYISRCTVCEGPAIAIAVHSQTTDIPPCPHGWISLWKGFSFIMFTSAGSEGTGQALASPGSCLEEFRASPFLECHGRGTCNYYSNSYSFWLASLNPERMFRKPIPSTVKAGELEKIISRCQVCMKKRH
modifications: Tum-1 (Tumstatin N-53) (amino acids 54-244 of SEQ ID NO10)
PC-3 tumors; PC3 prostate xenograft model, 5 mg or 20 mg per kilogram
  anti-tumor activity: substantial anti-tumor activity
[1]
  reduction of new blood vessels: 95%
  inhibition of neovascularization: 95%
  average number of vessels per high power field: 0.47±0.16

B7: Can-1: N-terminal 114 amino acids of full-length Canstatin (protein, listed as Homo sapiens)
chain: VSIGYLLVKHSQTDQEPMCPVGMNKLWSGYSLLYFEGQEKAHNQDLGLAGSCLARFSTMPFLYCNPGDVCYYASRNDKSYWLSTTAPLPMMPVAEDEIKPYISRCSVCEAPAIA
[1]
  number of blood vessels per plug: significantly fewer blood vessels
